According to article PMC9482650, “Quantitative fragmentomics allow affinity mapping of interactomes” (Nature Communications, 2022):

Key:
Experiment in all cases: holdup assay
Set-up in all cases: key: below the threshold = too weak to quantify, mostly under pKd 3.1 to 4
[1] = biological target: AHNAK1, Q09666
[2] = biological target: T1, APBA2_2, Q99767
T1 sequence (Q99767 654-744, limits assumed, looked up): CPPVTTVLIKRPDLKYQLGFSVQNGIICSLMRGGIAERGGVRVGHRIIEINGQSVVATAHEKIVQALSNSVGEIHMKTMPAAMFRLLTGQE

[3] = biological target: T2, APBA3_1, O96018
T2 sequence (O96018 389-490, limits assumed, looked up): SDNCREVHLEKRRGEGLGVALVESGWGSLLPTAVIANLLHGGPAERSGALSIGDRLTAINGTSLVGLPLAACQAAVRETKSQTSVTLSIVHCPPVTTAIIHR

[4] = biological target: DLG1_1, Q12959
[5] = biological target: DLG2_2, Q15700
Chain of DLG2_2, Q15700 (Q15700 189-283): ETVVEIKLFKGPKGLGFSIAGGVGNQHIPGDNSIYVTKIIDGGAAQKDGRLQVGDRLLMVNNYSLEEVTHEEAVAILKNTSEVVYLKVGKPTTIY

[6] = biological target: DLG4_2, P78352
Chain of DLG4_2, P78352 (P78352 155-259): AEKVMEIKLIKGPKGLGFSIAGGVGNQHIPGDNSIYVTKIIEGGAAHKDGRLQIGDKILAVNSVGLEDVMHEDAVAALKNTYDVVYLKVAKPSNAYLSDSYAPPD

[7] = biological target: DLG4_3, P78352
Chain of DLG4_3, P78352 (P78352 306-403): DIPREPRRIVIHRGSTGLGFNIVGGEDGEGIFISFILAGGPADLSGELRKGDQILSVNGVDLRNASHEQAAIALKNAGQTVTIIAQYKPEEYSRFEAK

[8] = biological target: FRMPD4, Q14CM0
Chain of FRMPD4, Q14CM0 (Q14CM0 67-160): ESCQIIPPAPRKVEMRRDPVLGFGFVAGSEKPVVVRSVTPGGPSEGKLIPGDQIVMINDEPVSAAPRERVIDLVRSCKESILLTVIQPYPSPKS

[9] = biological target: T3, GRIP1_5, Q9Y3R0
T3 sequence (Q9Y3R0 568-668, limits assumed, looked up): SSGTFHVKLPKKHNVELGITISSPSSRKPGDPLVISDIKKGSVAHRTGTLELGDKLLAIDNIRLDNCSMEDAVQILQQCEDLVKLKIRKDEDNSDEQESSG

[10] = biological target: T4, HTRA4, P83105
T4 sequence (P83105 378-476, limits assumed, looked up): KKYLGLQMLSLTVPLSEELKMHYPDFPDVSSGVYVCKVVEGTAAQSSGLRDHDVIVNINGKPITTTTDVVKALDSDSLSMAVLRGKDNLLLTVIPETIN

[11] = biological target: Inadl_1, Q8NI35
Chain of Inadl_1, Q8NI35 (Q8NI35 113-229): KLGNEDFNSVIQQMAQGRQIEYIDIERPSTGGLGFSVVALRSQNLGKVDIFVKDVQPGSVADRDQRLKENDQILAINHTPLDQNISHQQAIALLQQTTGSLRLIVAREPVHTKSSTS

[12] = biological target: Inadl_3, Q8NI35
Chain of Inadl_3, Q8NI35 (Q8NI35 359-469): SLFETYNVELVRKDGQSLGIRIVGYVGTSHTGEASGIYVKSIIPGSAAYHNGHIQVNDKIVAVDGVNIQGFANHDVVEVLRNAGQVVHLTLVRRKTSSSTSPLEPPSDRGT

[13] = biological target: Inadl_9, Q8NI35
Chain of Inadl_9, Q8NI35 (Q8NI35 1530-1615): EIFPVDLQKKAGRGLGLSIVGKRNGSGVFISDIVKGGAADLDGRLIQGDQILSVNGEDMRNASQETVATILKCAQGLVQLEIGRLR

[14] = biological target: LIMK2, P53671
Chain of LIMK2, P53671 (P53671 143-248): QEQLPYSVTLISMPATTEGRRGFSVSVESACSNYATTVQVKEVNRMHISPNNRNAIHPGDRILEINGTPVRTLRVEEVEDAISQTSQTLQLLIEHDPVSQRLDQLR

[15] = biological target: LNX1_1, Q8TBB1
Chain of LNX1_1, Q8TBB1 (Q8TBB1 261-371): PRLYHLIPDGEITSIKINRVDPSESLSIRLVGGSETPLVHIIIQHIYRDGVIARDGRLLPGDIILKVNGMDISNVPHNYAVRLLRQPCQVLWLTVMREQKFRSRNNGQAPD

[16] = biological target: LNX1_2, Q8TBB1
Chain of LNX1_2, Q8TBB1 (Q8TBB1 371-470): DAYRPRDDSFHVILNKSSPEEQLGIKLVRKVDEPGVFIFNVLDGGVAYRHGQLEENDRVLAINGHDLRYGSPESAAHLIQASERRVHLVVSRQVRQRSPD

[17] = biological target: T5, LNX2_2, Q8N448
T5 sequence (Q8N448 334-432, limits assumed, looked up): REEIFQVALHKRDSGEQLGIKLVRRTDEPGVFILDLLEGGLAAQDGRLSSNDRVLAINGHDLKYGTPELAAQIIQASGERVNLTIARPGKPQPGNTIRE

[18] = biological target: MAGI2_5, Q86UL8
Chain of MAGI2_5, Q86UL8 (Q86UL8 915-1017): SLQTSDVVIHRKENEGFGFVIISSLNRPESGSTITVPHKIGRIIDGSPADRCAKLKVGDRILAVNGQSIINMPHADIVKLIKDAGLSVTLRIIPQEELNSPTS

[19] = biological target: MAGI2_6, Q86UL8
Chain of MAGI2_6, Q86UL8 (Q86UL8 1141-1229): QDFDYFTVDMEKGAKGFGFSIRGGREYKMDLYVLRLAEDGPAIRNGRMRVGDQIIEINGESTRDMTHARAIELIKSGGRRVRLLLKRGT

[20] = biological target: T6, MPDZ_12, O75970
T6 sequence (O75970 1857-1958, limits assumed, looked up): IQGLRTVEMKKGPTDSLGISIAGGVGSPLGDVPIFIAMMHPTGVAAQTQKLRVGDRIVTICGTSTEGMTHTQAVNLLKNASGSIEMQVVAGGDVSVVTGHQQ

[21] = biological target: T7, NHERF3_4, Q5T2W1
T7 sequence (Q5T2W1 373-468, limits assumed, looked up): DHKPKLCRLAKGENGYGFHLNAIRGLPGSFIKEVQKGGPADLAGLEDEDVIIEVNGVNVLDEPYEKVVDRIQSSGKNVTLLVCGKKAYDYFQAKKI

[22] = biological target: T8, PDZD7_3, Q9H5P4
T8 sequence (Q9H5P4 857-944, limits assumed, looked up): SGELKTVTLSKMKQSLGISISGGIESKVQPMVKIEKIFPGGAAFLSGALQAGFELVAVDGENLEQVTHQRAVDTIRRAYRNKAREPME

[23] = biological target: PDZRN4_1, Q6ZMN7
Chain of PDZRN4_1, Q6ZMN7 (Q6ZMN7 213-318): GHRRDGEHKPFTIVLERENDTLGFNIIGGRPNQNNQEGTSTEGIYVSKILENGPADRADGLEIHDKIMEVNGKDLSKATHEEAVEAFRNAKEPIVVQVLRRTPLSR

[24] = biological target: T9, PTPN13_1, Q12923
T9 sequence (Q12923 1088-1188, limits assumed, looked up): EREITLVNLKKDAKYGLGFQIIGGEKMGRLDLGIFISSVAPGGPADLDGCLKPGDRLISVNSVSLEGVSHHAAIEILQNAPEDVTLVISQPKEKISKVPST

[25] = biological target: PTPN3, P26045
Chain of PTPN3, P26045 (P26045 505-587): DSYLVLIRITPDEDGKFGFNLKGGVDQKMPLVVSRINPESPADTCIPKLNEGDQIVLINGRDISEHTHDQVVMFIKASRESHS

[26] = biological target: T10, RAPGEF6, Q8TEU7
T10 sequence (Q8TEU7 525-625, limits assumed, looked up): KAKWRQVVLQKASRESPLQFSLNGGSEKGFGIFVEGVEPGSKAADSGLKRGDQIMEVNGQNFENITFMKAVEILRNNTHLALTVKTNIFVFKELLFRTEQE

[27] = biological target: T11, SHANK1, Q9Y566
T11 sequence (Q9Y566 658-767, limits assumed, looked up): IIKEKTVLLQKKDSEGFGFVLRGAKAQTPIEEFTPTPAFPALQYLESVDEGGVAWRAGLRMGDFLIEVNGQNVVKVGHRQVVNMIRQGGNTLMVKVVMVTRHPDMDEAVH

[28] = plain residues with an end cap or a label only (N-terminal biotin on a linker: ado-ado)
[29] = plain residues with an end cap or a label only (N-terminal biotin on a linker: ahx)
[30] = plain residues with an end cap or a label only (N-terminal biotin on a linker: (peg)3)

Chain of AHNAK1, Q09666 (Q09666 4-100): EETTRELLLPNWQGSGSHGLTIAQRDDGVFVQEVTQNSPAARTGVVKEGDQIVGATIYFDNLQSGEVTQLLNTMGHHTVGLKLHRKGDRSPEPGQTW

B1: KCNJ4, P48050 (peptide)
chain: NISYRRESAI
[1]; [28]
  pKd: below the threshold
[2]; [28]
  pKd: below the threshold
[3]; [28]
  pKd: below the threshold
[4]; [28]
  pKd: 3.54
[5]; [28]
  pKd: 3.86
[6]; [28]
  pKd: 4.17
[7]; [28]
  pKd: 4.12
[8]; [28]
  pKd: below the threshold
[9]; [28]
  pKd: below the threshold
[10]; [28]
  pKd: below the threshold
[11]; [28]
  pKd: below the threshold
[12]; [28]
  pKd: below the threshold
[13]; [28]
  pKd: below the threshold
[14]; [28]
  pKd: below the threshold
[15]; [28]
  pKd: below the threshold
[16]; [28]
  pKd: below the threshold
[17]; [28]
  pKd: below the threshold
[18]; [28]
  pKd: below the threshold
[19]; [28]
  pKd: below the threshold
[20]; [28]
  pKd: below the threshold
[21]; [28]
  pKd: below the threshold
[22]; [28]
  pKd: 4.05
[23]; [28]
  pKd: 4.25
[24]; [28]
  pKd: below the threshold
[25]; [28]
  pKd: 4.6
[26]; [28]
  pKd: below the threshold
[27]; [28]
  pKd: below the threshold

B2: ABCA1, O95477 (peptide)
chain: QDEKVKESYV
[1]; [29]
  pKd: below the threshold
[2]; [29]
  pKd: below the threshold
[3]; [29]
  pKd: below the threshold
[4]; [29]
  pKd: 4.6
[5]; [29]
  pKd: 4.17
[6]; [29]
  pKd: 5.25
[7]; [29]
  pKd: 3.78
[8]; [29]
  pKd: below the threshold
[9]; [29]
  pKd: below the threshold
[10]; [29]
  pKd: below the threshold
[11]; [29]
  pKd: below the threshold
[12]; [29]
  pKd: 3.75
[13]; [29]
  pKd: 4.29
[14]; [29]
  pKd: below the threshold
[15]; [29]
  pKd: 4.38
[16]; [29]
  pKd: below the threshold
[17]; [29]
  pKd: 3.64
[18]; [29]
  pKd: 4.58
[19]; [29]
  pKd: 4.53
[20]; [29]
  pKd: below the threshold
[21]; [29]
  pKd: 3.5
[22]; [29]
  pKd: 5.35
[23]; [29]
  pKd: 3.95
[24]; [29]
  pKd: below the threshold
[25]; [29]
  pKd: 5.04
[26]; [29]
  pKd: below the threshold
[27]; [29]
  pKd: below the threshold

B3: KCNJ18, B7U540 (peptide)
chain: QRPYRRGSEI
[1]; [28]
  pKd: below the threshold
[2]; [28]
  pKd: below the threshold
[3]; [28]
  pKd: below the threshold
[4]; [28]
  pKd: below the threshold
[5]; [28]
  pKd: below the threshold
[6]; [28]
  pKd: 3.66
[7]; [28]
  pKd: below the threshold
[8]; [28]
  pKd: below the threshold
[9]; [28]
  pKd: below the threshold
[10]; [28]
  pKd: below the threshold
[11]; [28]
  pKd: below the threshold
[12]; [28]
  pKd: below the threshold
[13]; [28]
  pKd: below the threshold
[14]; [28]
  pKd: below the threshold
[15]; [28]
  pKd: 3.83
[16]; [28]
  pKd: below the threshold
[17]; [28]
  pKd: below the threshold
[18]; [28]
  pKd: below the threshold
[19]; [28]
  pKd: below the threshold
[20]; [28]
  pKd: 3.56
[21]; [28]
  pKd: below the threshold
[22]; [28]
  pKd: below the threshold
[23]; [28]
  pKd: below the threshold
[24]; [28]
  pKd: below the threshold
[25]; [28]
  pKd: 4.02
[26]; [28]
  pKd: below the threshold
[27]; [28]
  pKd: below the threshold

B4: WNV-NS5, Q9Q6P4 (peptide)
chain: RYEDTTLVEDTVL
[1]; [30]
  pKd: below the threshold
[2]; [30]
  pKd: below the threshold
[3]; [30]
  pKd: below the threshold
[4]; [30]
  pKd: 3.58
[5]; [30]
  pKd: below the threshold
[6]; [30]
  pKd: 3.7
[7]; [30]
  pKd: below the threshold
[8]; [30]
  pKd: 4.85
[9]; [30]
  pKd: below the threshold
[10]; [30]
  pKd: below the threshold
[11]; [30]
  pKd: below the threshold
[12]; [30]
  pKd: 3.82
[13]; [30]
  pKd: below the threshold
[14]; [30]
  pKd: below the threshold
[15]; [30]
  pKd: 3.74
[16]; [30]
  pKd: below the threshold
[17]; [30]
  pKd: below the threshold
[18]; [30]
  pKd: below the threshold
[19]; [30]
  pKd: 3.78
[20]; [30]
  pKd: below the threshold
[21]; [30]
  pKd: 3.96
[22]; [30]
  pKd: 4.54
[23]; [30]
  pKd: 3.94
[24]; [30]
  pKd: below the threshold
[25]; [30]
  pKd: 4.37
[26]; [30]
  pKd: below the threshold
[27]; [30]
  pKd: 4.77

B5: CLDN4, O14493 (peptide)
chain: ARSAAASNYV
[1]; [28]
  pKd: below the threshold
[2]; [28]
  pKd: below the threshold
[3]; [28]
  pKd: below the threshold
[4]; [28]
  pKd: below the threshold
[5]; [28]
  pKd: below the threshold
[6]; [28]
  pKd: below the threshold
[7]; [28]
  pKd: below the threshold
[8]; [28]
  pKd: below the threshold
[9]; [28]
  pKd: below the threshold
[10]; [28]
  pKd: 3.98
[11]; [28]
  pKd: below the threshold
[12]; [28]
  pKd: below the threshold
[13]; [28]
  pKd: 3.71
[14]; [28]
  pKd: below the threshold
[15]; [28]
  pKd: 3.57
[16]; [28]
  pKd: below the threshold
[17]; [28]
  pKd: 4.04
[18]; [28]
  pKd: below the threshold
[19]; [28]
  pKd: below the threshold
[20]; [28]
  pKd: below the threshold
[21]; [28]
  pKd: below the threshold
[22]; [28]
  pKd: below the threshold
[23]; [28]
  pKd: 3.66
[24]; [28]
  pKd: below the threshold
[25]; [28]
  pKd: below the threshold
[26]; [28]
  pKd: below the threshold
[27]; [28]
  pKd: below the threshold
